Source: patent publication US20160333422A1 (UNITED STATES OF AMERICA AS REPRESENTED BY THE SECRETARY …, published 2016)

T1: NY-BR-1 expressed from a transfected vector/plasmid in target cells (Homo sapiens (Human), UniProt Q9BXX3 1-1397)
T1 sequence: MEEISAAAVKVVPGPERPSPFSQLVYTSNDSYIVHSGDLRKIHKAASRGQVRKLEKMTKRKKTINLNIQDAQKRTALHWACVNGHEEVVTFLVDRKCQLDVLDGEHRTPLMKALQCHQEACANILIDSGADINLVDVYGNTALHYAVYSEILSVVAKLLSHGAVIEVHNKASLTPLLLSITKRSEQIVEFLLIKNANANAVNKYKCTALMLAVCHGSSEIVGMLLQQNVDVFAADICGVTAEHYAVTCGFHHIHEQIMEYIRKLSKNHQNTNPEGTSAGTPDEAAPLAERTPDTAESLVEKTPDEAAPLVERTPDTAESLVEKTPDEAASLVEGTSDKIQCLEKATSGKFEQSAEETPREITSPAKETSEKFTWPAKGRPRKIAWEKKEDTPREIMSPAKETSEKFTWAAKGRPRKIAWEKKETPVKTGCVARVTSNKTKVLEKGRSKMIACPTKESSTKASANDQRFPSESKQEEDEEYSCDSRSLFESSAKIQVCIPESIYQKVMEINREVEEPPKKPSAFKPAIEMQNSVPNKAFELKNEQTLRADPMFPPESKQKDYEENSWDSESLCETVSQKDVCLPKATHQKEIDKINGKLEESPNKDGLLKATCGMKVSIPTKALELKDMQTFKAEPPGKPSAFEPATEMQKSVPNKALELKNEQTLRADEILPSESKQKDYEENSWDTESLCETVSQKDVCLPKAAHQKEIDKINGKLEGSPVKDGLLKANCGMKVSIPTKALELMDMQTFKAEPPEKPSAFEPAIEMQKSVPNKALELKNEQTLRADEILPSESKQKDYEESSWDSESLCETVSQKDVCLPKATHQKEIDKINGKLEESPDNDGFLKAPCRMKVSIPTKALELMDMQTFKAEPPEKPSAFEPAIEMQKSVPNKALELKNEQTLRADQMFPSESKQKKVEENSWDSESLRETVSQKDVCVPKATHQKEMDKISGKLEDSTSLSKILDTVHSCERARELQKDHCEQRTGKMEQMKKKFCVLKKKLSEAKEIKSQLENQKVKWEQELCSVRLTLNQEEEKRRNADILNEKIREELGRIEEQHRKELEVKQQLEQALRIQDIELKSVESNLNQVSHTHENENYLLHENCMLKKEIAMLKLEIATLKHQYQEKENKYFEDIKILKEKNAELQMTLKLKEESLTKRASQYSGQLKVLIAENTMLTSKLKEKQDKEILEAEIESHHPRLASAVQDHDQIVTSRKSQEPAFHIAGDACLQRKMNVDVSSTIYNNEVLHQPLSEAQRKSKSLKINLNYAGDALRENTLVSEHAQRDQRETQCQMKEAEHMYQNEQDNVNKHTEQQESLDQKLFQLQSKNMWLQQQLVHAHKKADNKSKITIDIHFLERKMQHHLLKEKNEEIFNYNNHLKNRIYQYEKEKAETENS

B1: fourth generation anti-NY-BR-1 CAR (NYBR1 ScFv BBZ) (other)
chain: VQLQESGPDLVKPSQSLSLTCTVTGYSITSGYSWHWIRQFPGNKLEWMGYIHYSGDTDYNPSLKSRFSITRDTSKNQFFLQLNSVTTEDTATYYCATPGGFVYWGQGTLVTVSAGGGGSGGGGSGGGGSDVVMTQTPLTLSVTIGQPASISCKSSQSLLDSDGKTYLHWLLQRPGQSPKRLIFLVSKLDSGVPDRFTGSGSGTDFTLKISRVEAEDLGVYYCWQGTHFPQTFGGGTKLEIKAAAFVPVFLPAKPTTTPAPRPPTPAPTIASQPLSLRPEACRPAAGGAVHTRGLDFACDIYIWAPLAGTCGVLLLSLVITLYCNHRNRFSVVKRGRKKLLYIFKQPFMRPVQTTQEEDGCSCRFPEEEEGGCELRVKFSRSADAPAYQQGQNQLYNELNLGRREEYDVLDKRRGRDPEMGGKPRRKNPQEGLYNELQKDKMAEAYSEIGMKGERRRGKGHDGLYQGLSTATKDTYDALHMQALPPR
B2: second generation anti-NY-BR-1 CAR (NYBR1-28Z) (other)
chain: VQLQESGPDLVKPSQSLSLTCTVTGYSITSGYSWHWIRQFPGNKLEWMGYIHYSGDTDYNPSLKSRFSITRDTSKNQFFLQLNSVTTEDTATYYCATPGGFVYWGQGTLVTVSAGGGGSGGGGSGGGGSDVVMTQTPLTLSVTIGQPASISCKSSQSLLDSDGKTYLHWLLQRPGQSPKRLIFLVSKLDSGVPDRFTGSGSGTDFTLKISRVEAEDLGVYYCWQGTHFPQTFGGGTKLEIKAAAIEVMYPPPYLDNEKSNGTIIHVKGKHLCPSPLFPGPSKPFWVLVVVGGVLACYSLLVTVAFIIFWVRSKRSRLLHSDYMNMTPRRPGPTRKHYQPYAPPRDFAAYRSRVKFSRSADAPAYQQGQNQLYNELNLGRREEYDVLDKRRGRDPEMGGKPRRKNPQEGLYNELQKDKMAEAYSEIGMKGERRRGKGHDGLYQGLSTATKDTYDALHMQALPPR
B3: third generation anti-NY-BR-1 CAR (NYBR1-28BBZ) (other)
chain: VQLQESGPDLVKPSQSLSLTCTVTGYSITSGYSWHWIRQFPGNKLEWMGYIHYSGDTDYNPSLKSRFSITRDTSKNQFFLQLNSVTTEDTATYYCATPGGFVYWGQGTLVTVSAGGGGSGGGGSGGGGSDVVMTQTPLTLSVTIGQPASISCKSSQSLLDSDGKTYLHWLLQRPGQSPKRLIFLVSKLDSGVPDRFTGSGSGTDFTLKISRVEAEDLGVYYCWQGTHFPQTFGGGTKLEIKAAAFVPVFLPAKPTTTPAPRPPTPAPTIASQPLSLRPEACRPAAGGAVHTRGLDFACDIYIWAPLAGTCGVLLLSLVITLYCNHRNRSKRSRLLHSDYMNMTPRRPGPTRKHYQPYAPPRDFAAYRSRFSVVKRGRKKLLYIFKQPFMRPVQTTQEEDGCSCRFPEEEEGGCELRVKFSRSADAPAYQQGQNQLYNELNLGRREEYDVLDKRRGRDPEMGGKPRRKNPQEGLYNELQKDKMAEAYSEIGMKGERRRGKGHDGLYQGLSTATKDTYDALHMQALPPR

What was measured:
[1] = molecular target: NYBR1.1, an isoform of NYBR1, expressed from a plasmid in Cos7 cells, Q9BXX2; assay: cell-based or functional assay
Sequence of NYBR1.1, an isoform of NYBR1, expressed from a plasmid in Cos7 cells, Q9BXX2 (Q9BXX2 whole entry, canonical isoform): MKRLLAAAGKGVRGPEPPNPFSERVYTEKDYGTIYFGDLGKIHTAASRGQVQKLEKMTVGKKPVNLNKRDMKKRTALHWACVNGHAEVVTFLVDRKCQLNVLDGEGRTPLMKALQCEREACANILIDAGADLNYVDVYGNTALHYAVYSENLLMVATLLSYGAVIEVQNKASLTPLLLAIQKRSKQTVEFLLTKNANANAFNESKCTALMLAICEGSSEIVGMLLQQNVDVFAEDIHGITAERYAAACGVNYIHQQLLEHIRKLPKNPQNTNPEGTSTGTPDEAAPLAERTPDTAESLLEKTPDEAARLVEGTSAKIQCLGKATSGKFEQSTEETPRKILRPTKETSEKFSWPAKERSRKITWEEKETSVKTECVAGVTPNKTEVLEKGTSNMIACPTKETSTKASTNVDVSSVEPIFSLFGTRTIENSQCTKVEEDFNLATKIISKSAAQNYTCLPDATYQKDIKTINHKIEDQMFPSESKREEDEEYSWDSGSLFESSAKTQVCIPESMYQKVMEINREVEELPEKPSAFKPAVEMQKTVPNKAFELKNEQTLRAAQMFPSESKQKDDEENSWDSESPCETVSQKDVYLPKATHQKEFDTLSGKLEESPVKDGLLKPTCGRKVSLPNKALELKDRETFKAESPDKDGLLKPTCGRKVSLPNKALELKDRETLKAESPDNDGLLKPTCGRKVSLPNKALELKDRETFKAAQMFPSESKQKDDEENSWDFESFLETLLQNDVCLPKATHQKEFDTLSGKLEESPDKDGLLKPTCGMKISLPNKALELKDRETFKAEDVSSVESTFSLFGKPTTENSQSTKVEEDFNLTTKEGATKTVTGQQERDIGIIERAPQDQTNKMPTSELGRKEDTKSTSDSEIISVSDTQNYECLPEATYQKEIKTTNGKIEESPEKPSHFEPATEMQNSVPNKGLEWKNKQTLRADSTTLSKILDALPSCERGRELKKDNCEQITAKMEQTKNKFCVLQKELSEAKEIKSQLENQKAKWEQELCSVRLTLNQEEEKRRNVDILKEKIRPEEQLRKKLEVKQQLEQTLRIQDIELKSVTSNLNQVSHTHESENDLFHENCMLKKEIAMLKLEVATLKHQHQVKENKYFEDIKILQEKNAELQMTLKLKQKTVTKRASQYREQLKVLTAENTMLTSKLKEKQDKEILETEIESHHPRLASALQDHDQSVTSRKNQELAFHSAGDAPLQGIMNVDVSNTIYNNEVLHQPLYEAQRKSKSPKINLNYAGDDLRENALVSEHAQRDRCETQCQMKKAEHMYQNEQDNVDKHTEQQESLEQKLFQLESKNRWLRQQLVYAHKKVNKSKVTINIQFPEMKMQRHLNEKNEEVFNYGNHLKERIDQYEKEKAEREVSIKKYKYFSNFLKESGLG

[2] = molecular target: T1, NY-BR-1 expressed from a transfected …; assay: cell-based or functional assay

| Binder | IFN-γ secretion (pg/ml) upon co-culture with Cos7 cell line transfected with plasmid NYBR 1.1; Patient 5 [1] | IFN-γ secretion (pg/ml) upon co-culture with Cos7 cell line transfected with plasmid NYBR 1.1; Patient 6 [1] | IFN-γ secretion (pg/ml) upon co-culture with Cos7 cell line transfected with plasmid NYBR 1.1; Patient 7 [1] | IFN-γ secretion (pg/ml) upon co-culture with Cos7 cell line transfected with plasmid NYBR1; Patient 5 [2] | IFN-γ secretion (pg/ml) upon co-culture with Cos7 cell line transfected with plasmid NYBR1; Patient 6 [2] | IFN-γ secretion (pg/ml) upon co-culture with Cos7 cell line transfected with plasmid NYBR1; Patient 7 [2] |
| --- | --- | --- | --- | --- | --- | --- |
| B1 | 527 pg/mL | 411 pg/mL | 1260 pg/mL | 1620 pg/mL | 929 pg/mL | 3290 pg/mL |
| B2 | 153 pg/mL | 51 pg/mL | 518 pg/mL | 1110 pg/mL | 555 pg/mL | 3590 pg/mL |
| B3 | 0 pg/mL | 14 pg/mL | 26 pg/mL | 51 pg/mL | 48 pg/mL | 71 pg/mL |
